Test results published in patent publication US20240360242A1 (KISOJI BIOTECHNOLOGY, published 2024).
Positions count from the first letter of the chain named.

T1: HEK-TROP2 Δ27-44
T1 construct: also called TROP2 delta 27-44
T1 membrane protein on transfected HEK cells: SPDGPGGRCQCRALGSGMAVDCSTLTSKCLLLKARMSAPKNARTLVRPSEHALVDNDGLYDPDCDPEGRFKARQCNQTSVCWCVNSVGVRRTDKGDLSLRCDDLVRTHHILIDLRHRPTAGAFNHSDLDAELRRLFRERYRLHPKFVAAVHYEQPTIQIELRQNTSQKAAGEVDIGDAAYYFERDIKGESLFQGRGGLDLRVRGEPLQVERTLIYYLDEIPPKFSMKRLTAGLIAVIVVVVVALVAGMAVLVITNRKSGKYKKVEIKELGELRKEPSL

T2: HEK-TROP2 Δ27-126 (human, UniProt P09758)
T2 construct: deletion of residues 27-126, transiently expressed on HEK cells
T2 sequence (membrane protein on transfected HEK cells, looked up): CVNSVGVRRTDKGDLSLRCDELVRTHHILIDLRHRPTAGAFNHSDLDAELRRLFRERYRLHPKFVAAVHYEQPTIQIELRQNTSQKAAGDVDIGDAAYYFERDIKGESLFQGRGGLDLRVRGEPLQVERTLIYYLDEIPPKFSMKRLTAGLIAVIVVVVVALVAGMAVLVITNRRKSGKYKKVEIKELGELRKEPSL

T3: HEK-TROP2 Δ27-104 (human, UniProt P09758)
T3 sequence (membrane protein on transfected HEK cells, looked up): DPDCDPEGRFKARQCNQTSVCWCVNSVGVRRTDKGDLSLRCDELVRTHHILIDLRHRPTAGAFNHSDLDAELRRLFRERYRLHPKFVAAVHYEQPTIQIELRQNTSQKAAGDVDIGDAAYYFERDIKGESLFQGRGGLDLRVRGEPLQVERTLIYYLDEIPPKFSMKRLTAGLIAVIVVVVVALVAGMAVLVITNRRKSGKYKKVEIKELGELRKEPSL

T4: HEK-TROP2 Δ27-96 (human, UniProt P09758)
T4 construct: deletion of residues 27-96, transiently expressed on HEK cells
T4 sequence (membrane protein on transfected HEK cells, looked up): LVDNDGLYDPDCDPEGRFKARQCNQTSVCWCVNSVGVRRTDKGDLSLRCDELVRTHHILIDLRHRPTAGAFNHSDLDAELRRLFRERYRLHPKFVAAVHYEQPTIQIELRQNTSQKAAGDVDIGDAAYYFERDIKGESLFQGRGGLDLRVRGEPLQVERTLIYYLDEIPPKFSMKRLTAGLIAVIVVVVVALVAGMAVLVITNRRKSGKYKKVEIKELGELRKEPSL

T5: HEK-TROP2 Δ27-114 (human, UniProt P09758)
T5 construct: deletion of residues 27-114, transiently expressed on HEK cells
T5 sequence (membrane protein on transfected HEK cells, looked up): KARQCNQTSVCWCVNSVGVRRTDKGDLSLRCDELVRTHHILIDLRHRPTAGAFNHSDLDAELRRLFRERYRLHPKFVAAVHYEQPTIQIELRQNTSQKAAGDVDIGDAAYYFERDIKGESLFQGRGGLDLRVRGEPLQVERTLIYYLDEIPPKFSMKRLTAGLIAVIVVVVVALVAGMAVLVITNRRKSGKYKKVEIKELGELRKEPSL

T6: TROP2 delta 27-56 on HEK cells (human, UniProt P09758 1-323)
T6 construct: Human TROP2 with residues 27-56 deleted, transiently transfected into HEK cells; also called TROP2 with 27-56 regions truncated
T6 chain: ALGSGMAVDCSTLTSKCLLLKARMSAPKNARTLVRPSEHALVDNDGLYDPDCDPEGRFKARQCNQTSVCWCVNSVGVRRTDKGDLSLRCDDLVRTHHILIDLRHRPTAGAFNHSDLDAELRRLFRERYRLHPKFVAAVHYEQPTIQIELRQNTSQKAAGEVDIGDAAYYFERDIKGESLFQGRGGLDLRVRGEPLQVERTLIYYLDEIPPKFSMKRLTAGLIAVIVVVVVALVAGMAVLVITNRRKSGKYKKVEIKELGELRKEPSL

T7: HEK-TROP2 Δ27-36
T7 construct: also called TROP2 delta 27-36
T7 membrane protein on transfected HEK cells: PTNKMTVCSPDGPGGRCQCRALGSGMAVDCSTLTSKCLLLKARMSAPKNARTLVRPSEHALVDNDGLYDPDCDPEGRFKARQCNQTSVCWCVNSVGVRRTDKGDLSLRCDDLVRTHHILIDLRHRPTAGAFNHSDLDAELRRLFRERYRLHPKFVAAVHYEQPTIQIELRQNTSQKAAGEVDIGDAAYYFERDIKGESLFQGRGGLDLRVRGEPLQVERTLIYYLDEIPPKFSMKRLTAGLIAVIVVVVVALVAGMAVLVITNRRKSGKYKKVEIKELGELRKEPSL

B1: KD002 (antibody, human IgG1, V domains shown)
VH: QVQLQESGGGMVQVGGSLRLSCAASGFPFSSADMSWVRQAPGKGPEWVSYINADGSKTYYPDSVKGRFTISRDNAKNTLYLLMNNLKPEDTALYRCARAKLTDTHYVEDYWGQGTQVTVSS
notes: also called anti-TROP2 sdAb KD002
B2: KD003 (antibody, human IgG1, V domains shown)
VH: B1 VH with V14P, P28T, S31N, A32Y, D54G, K57N, Y59D, T78M
notes: also called anti-TROP2 sdAb KD003
B3: KD007 (antibody, human IgG1, V domains shown)
VH: QVQLQESGGGLVQPGGSLRLSCAASGFAFSFYAMAWYRQAPGKQRDMVATITAYGNTNYADSVKGRFTTSRDNAKNTVYLQMNSLKPEDTAVYVCNANLPSASHNYWGQGTQVTVSS
notes: also called anti-TROP2 sdAb KD007
B4: KD001 (antibody, human IgG1, V domains shown)
VH: QVQLQESGGGMVHPGGSLRLSCAASGFTFSGSDMSWVRQAPGKGPEWVSYITSGGTTYYPDSVKGRFTISRDNAKNTLYLQMNSLTPDDTALYRCAKARLTDSHYVEDAWGQGTQVTVSS
notes: also called anti-TROP2 sdAb KD001
B5: KD005 (antibody, human IgG1, V domains shown)
VH: B4 VH with M11L, H13E, P14A, T86K, A98S
notes: also called anti-TROP2 sdAb KD005
B6: KD004 (antibody, human IgG1, V domains shown)
VH: B4 VH with M11L, H13Q, G16R, S53G, G54S, I69T, T77M, T86K
notes: also called anti-TROP2 sdAb KD004

Biological target: T1, HEK-TROP2 Δ27-44
Assay: flow cytometry, 100 nM antibody, transiently transfected HEK cells, APC anti-human Fc
Protocol: (§1) To determine the effect of TROP2 truncations on the binding ability of anti-TROP2 sdAbs, the HEK parental cells were transiently transfected with human TROP2 mutants by lipofectamine. 24 hours after transfection, cells were collected and stained with anti-TROP2 antibodies (FIG. 13A and FIG. 13B). In brief, 1×10⁵ cells were incubated with an Fc receptor blocking antibody (1/100 dilution) for 10 minutes at room temperature. Anti-TROP2 antibodies were diluted in FACS staining buffer to 100 nM and added and incubated with cells for 30 minutes on ice. After washing three times with FACS staining buffer, APC-conjugated secondary antibodies recognizing the human Fc region (Biolegend, Cat #410712) were mixed with cells. After staining for 30 minutes, cells were washed three times, followed by resuspension into 100 μL of 7-Amino-Actinomycin D (7-AAD) solution (BD Biosciences, Cat #559925).

Binder | binding result
B1 | binds
B2 | binds
B3 | no binding (tested: 100 nM)
B4 | binds
B5 | binds
B6 | binds

These binders were tested against T2, HEK-TROP2 Δ27-126 in the same assay as above.
Protocol: as §1

Binder | binding result
B1 | no binding (tested: 100 nM)
B2 | no binding (tested: 100 nM)
B3 | no binding (tested: 100 nM)
B4 | no binding (tested: 100 nM)
B5 | no binding (tested: 100 nM)
B6 | no binding (tested: 100 nM)

Each binder was assayed against T3, HEK-TROP2 Δ27-104 in the same assay as above.
Protocol: as §1

Binder | binding result
B1 | no binding (tested: 100 nM)
B2 | no binding (tested: 100 nM)
B3 | no binding (tested: 100 nM)
B4 | no binding (tested: 100 nM)
B5 | no binding (tested: 100 nM)
B6 | no binding (tested: 100 nM)

These binders were tested against T4, HEK-TROP2 Δ27-96 in the same assay as above.
Protocol: as §1

Binder | binding result
B1 | no binding (tested: 100 nM)
B2 | no binding (tested: 100 nM)
B3 | no binding (tested: 100 nM)
B4 | no binding (tested: 100 nM)
B5 | no binding (tested: 100 nM)
B6 | no binding (tested: 100 nM)

Each binder was assayed against T5, HEK-TROP2 Δ27-114 in the same assay as above.
Protocol: as §1

Binder | binding result
B1 | no binding (tested: 100 nM)
B2 | no binding (tested: 100 nM)
B3 | no binding (tested: 100 nM)
B4 | no binding (tested: 100 nM)
B5 | no binding (tested: 100 nM)
B6 | no binding (tested: 100 nM)

Biological target: T6, TROP2 delta 27-56 on HEK cells
Assay: as above
Protocol: as §1

Binder | binding result
B1 | no binding (tested: 100 nM)
B2 | no binding (tested: 100 nM)
B3 | no binding (tested: 100 nM)
B4 | no binding (tested: 100 nM)
B5 | no binding (tested: 100 nM)
B6 | no binding (tested: 100 nM)

Biological target: T7, HEK-TROP2 Δ27-36
Assay: as above
Protocol: as §1

Binder | binding result
B1 | binds
B2 | binds
B3 | no binding (tested: 100 nM)
B4 | binds
B5 | binds
B6 | binds
